{"source": "paper PMC11784139", "key": {"[1]": {"test_system": "T1, 6xHis-APR1 (Acinetobacter venetianus RAG-1), ORF:d17a4b85", "T1 sequence": "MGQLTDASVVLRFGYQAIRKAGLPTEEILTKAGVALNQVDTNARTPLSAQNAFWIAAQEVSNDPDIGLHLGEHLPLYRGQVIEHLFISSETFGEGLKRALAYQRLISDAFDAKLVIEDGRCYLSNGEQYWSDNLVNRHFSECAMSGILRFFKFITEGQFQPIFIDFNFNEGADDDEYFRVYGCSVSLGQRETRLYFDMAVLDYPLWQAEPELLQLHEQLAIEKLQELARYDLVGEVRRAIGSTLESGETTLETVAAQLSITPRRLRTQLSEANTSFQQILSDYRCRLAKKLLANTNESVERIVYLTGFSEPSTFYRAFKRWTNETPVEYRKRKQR", "experiment": "EMSA", "details": "EMSA: 5 mM Tris-HCl pH 7.5, 0.1 mM EDTA, 5 mM MgCl2, 10 mM KCl, 0.2 mM DTT, 30 C, 30 min, native PAGE in 0.5x TBE; MST: 50 mM PBS pH 7.2-7.4, temperature not …"}, "[2]": {"test_system": "6xHis-APR1 (Acinetobacter venetianus RAG-1)", "experiment": "MST", "details": "EMSA: 5 mM Tris-HCl pH 7.5, 0.1 mM EDTA, 5 mM MgCl2, 10 mM KCl, 0.2 mM DTT, 30 C, 30 min, native PAGE in 0.5x TBE; MST: 50 mM PBS pH 7.2-7.4, temperature not …"}, "[3]": {"target": "6 × His-tagged APR1 (AlmA Positive Regulator) (Acinetobacter venetianus RAG-1)", "experiment": "cross-linking; 0.1% glutaraldehyde added to 5 µg purified 6 × His-tagged APR1 in 50 mM Tris-HCl (pH 8.0), 10% glycerol; 0.5–1 h at 30°C; analysed by SDS-PAGE"}}}
{"substance": "AGCCTACCTGATGATCAAATTGGAAAGGCGCAAATTATAGTCAATTTATTTGAAATTTACAAGACGCTCTCTTAGCAAAGCTTGTACAGATGAATTGGAAAAAACTGTCAGACAATCCTCATTTTTTTTTAACAAAAGAAGCAGAATAGTGTTGTCAGTTTGGTCAATCAACGTTAATCTAAAATTATTGTTTATTGTCACAATAACGTATCTACAGGGAAGGGCACTGC (double strand) [apR1 promoter]", "values": [{"measurement": "binding", "setting": "[1]", "value": "binds"}]}
{"substance": "almA promoter", "values": [{"measurement": "Kd", "setting": "[2]", "value": 97.2, "unit": "nM"}]}
{"substance": "6 × His-tagged APR1 (AlmA Positive Regulator) (natural protein)", "values": [{"measurement": "stoichiometry N", "setting": "[3]", "value": 2}]}
